One test concerns the target T1, GhHDA6 (cotton).
T1 chain: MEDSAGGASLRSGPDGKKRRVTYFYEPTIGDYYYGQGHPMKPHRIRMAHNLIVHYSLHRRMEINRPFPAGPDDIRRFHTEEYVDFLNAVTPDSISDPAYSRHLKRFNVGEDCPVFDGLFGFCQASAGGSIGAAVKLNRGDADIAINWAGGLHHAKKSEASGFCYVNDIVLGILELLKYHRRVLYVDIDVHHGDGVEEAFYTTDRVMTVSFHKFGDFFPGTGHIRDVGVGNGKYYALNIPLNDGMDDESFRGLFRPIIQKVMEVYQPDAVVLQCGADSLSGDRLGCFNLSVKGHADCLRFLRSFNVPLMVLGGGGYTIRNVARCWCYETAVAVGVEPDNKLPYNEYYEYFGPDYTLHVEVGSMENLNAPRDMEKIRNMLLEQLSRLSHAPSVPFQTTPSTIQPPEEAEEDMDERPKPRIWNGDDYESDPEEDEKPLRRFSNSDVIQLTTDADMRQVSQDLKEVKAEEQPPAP
In words: yeast two hybrid.

A further test concerns the target T2, NMYC (human, UniProt P04198 1-464).
T2 construct: In pGADT7 (AD fusion) for yeast two hybrid
T2 sequence (looked up): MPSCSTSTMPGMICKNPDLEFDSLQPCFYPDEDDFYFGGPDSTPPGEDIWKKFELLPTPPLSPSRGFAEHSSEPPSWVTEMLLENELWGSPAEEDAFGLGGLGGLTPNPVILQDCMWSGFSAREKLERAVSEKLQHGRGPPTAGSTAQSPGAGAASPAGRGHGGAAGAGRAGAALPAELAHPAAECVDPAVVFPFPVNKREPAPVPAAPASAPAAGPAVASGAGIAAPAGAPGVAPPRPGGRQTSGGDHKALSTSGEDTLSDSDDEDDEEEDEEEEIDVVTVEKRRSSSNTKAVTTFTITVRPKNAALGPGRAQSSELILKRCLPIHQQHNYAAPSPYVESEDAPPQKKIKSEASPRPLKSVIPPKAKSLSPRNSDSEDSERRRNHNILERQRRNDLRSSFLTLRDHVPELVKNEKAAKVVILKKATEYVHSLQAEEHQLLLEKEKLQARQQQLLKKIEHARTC
In words: yeast two hybrid.

Another test deals with T3, uPAR-D1D2 (Homo sapiens (Human), UniProt Q03405 23-335, limits assumed).
T3 construct: It is tied to 'D3 domain deficient uPAR' by its name only; also called D3 domain deficient uPAR
In words: yeast two hybrid.

A further test concerns the target T4, GhTPL (cotton).
T4 chain: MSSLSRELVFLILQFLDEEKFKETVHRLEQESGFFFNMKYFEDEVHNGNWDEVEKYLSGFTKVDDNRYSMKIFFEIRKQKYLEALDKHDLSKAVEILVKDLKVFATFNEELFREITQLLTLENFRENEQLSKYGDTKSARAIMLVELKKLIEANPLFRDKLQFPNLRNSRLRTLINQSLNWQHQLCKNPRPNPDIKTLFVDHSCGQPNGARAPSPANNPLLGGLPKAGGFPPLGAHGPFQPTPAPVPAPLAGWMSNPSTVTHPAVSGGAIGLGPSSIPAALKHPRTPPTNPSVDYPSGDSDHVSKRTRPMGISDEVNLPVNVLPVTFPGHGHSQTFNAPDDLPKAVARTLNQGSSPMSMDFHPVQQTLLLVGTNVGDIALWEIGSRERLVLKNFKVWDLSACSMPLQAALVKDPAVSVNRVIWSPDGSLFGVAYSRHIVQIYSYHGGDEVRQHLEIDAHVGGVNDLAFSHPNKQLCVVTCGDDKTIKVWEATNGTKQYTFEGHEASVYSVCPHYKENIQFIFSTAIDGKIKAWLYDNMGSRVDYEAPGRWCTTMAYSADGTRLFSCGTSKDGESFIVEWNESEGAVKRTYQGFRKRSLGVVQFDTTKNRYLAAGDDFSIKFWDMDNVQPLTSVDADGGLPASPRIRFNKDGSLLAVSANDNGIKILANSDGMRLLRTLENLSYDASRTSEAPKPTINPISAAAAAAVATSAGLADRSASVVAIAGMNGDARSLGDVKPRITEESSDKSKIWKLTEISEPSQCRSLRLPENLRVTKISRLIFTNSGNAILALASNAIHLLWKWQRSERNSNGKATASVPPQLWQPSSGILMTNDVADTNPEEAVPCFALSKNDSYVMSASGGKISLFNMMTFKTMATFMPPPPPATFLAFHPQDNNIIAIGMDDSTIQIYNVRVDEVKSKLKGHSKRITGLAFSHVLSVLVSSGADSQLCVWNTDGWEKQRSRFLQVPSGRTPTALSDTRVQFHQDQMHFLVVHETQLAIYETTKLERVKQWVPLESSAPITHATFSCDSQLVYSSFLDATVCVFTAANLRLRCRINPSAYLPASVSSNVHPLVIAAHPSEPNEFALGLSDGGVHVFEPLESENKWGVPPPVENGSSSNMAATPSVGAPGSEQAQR
In words: yeast two hybrid.

For the next test, the target named is T5, GhNINJA (cotton).
T5 chain: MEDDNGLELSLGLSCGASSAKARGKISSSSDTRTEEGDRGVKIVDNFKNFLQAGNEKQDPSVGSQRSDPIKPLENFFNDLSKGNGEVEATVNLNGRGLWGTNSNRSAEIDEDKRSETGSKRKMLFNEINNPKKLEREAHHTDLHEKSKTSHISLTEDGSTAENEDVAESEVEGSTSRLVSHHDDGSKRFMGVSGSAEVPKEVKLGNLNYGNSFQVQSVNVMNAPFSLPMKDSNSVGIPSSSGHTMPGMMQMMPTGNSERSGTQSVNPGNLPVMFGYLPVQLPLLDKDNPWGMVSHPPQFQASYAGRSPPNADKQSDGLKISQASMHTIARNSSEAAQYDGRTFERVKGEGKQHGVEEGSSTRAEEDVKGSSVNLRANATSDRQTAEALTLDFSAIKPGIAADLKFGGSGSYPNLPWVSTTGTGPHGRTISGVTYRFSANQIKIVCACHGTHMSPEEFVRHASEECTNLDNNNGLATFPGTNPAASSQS
In words: yeast two hybrid.

A further test deals with T6, GhCOI1 (cotton).
T6 chain: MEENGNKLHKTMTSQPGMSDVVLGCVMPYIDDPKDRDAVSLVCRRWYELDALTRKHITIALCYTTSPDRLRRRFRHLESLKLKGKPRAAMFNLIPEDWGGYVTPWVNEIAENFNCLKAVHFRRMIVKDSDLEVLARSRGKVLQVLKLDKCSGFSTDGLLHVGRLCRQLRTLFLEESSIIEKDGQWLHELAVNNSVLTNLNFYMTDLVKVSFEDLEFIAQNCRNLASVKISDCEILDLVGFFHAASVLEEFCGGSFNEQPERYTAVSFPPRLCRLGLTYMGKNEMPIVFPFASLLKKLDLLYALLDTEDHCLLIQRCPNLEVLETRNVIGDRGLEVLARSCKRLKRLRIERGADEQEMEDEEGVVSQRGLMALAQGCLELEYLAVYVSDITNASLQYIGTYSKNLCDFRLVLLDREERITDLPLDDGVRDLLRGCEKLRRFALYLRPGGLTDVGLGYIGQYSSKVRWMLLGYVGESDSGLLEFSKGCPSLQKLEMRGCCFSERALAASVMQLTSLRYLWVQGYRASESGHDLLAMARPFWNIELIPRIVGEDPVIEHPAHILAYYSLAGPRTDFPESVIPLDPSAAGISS
In words: yeast two hybrid, JA-Ile in the medium. As for the experimental part:
The study on Arabidopsis had shown that the inhibition of JAZ protein on JA signaling was mainly achieved by inhibiting the transcription factor function of MYC, which had been experimentally verified by us in cotton. Based on the phylogenetic tree of Arabidopsis and cotton JAZs, we screened 6 cotton JAZs (GhJAZ1, GhJAZ7, GhJAZ9, GhJAZ10, GhJAZ11 and GhJAZ31), which were analyzed with GhMYC2, GhNINJA, GhTPL, GhHDA6, and GhCOI1 for yeast two hybrid. The amino acid sequence of GhJAZ1 was set forth in SEQ ID No. 4, and the corresponding encoding gene sequence was set forth in SEQ ID No. 39; the amino acid sequence of GhJAZ7 was set forth in SEQ ID No. 7, and the corresponding encoding gene sequence was set forth in SEQ ID No. 42; the amino acid sequence of GhJAZ9 was set forth in SEQ ID No. 2, and the corresponding encoding gene sequence was set forth in SEQ ID No. 37; the amino acid sequence of GhJAZ10 was set forth in SEQ ID No. 3, and the corresponding encoding gene sequence was set forth in SEQ ID No. 38; the amino acid sequence of GhJAZ11 was set forth in SEQ ID No. 5, and the corresponding encoding gene sequence was set forth in SEQ ID No. 40; and the amino acid sequence of GhJAZ31 was set forth in SEQ ID No. 9, and the corresponding encoding gene sequence was set forth in SEQ ID No. 44. […]

For the next test, the target named is T7, c-Myc-150aa (human, UniProt P01106 1-150).
T7 construct: Also tested by LUC, for which the construct is not described; also called first 150 amino acids truncated c-Myc
In words: luciferase complementation (FIG. 13 E).

Another test has as its target T8, c-Myc-215aa (human, UniProt P01106 1-215).
T8 construct: Also tested by LUC, for which the construct is not described
In words: luciferase complementation (FIG. 13 E).

The target in a further test is T9, c-Myc (human, UniProt P01106 1-454, limits assumed).
T9 construct: In pGADT7 (AD fusion) for yeast two hybrid, pCAMBIA-NLuc for LUC, pUC-SPYCE for BiFC; also called proto-oncogene c-Myc; full length of c-Myc
In words: luciferase complementation in tobacco leaves (FIG. 6F). The source says: Using the method of LUC experiment, c-Myc (NCBI accession number: NM_002467.6) was subcloned to pCAMBIA NLuc vector (Chen, H., et al. “Firefly Luciferase Complementation Imaging Assay for Protein-Protein Interactions in Plants.” Plant Physiology 146.2(2008):368-376.) between the KpnI and SalI cleavage sites, and GhJAZ1 (SEQ ID No. 39) was subcloned to pCAMBIA-CLuc vector (Chen, H., et al. “Firefly Luciferase Complementation Imaging Assay for Protein-Protein Interactions in Plants.” Plant Physiology 146.2(2008):368-376.) between the KpnI and SalI cleavage sites. The constructed recombinant plasmids verified to be positive by sequencing were transformed into Agrobacterium GV3101 (pSoup-p19) (Shanghai Weidi biology technology co., Ltd, Cat. No.: AC1003), which were co-transfected into tobacco leaves. 2-3 days after injection, the infected leaves coated with the fluorescent substrate were placed in a dark chamber of the instrument for at least 6 min before taking images to quench fluorescence, followed by observation on the Nightowl-II LB983 instrument, using IndigoBasic software under the luciferase-5 min setting conditions. Cultivation was performed after co-infection. If there is interaction, LUC luciferase is expressed, and luminescence is detected after substrate application. As shown in F in FIG. 6, GhJAZ1 interacts with c-Myc.

In another test the target is GhMYC2 (cotton). In words: luciferase complementation in tobacco leaves (FIG. 5B). The procedure:
The constructed plasmids were then transformed into Agrobacterium GV3101 (pSoup-p19) (Shanghai Weidi Company, Cat. No.: AC1003), and placed successively on ice for 5 min, in liquid nitrogen for 5 min, in water bath at 37° C. for 5 min, and on ice for 5 min, and then LB liquid medium was added for cultivation at 28° C. and 220 rpm for 2-3 h, followed by plating onto LB solid plates containing corresponding antibiotics (kanamycin+rifampicin) for cultivation at 28° C. for 2-3 days. Positive monoclonal clones were picked for cultivation after colonies grown out. The corresponding NLUC and CLUC vectors then were mixed and injected into tobacco leaves (1 day in the dark/1 day in the light). Luciferase substrates were applied at the infected leaves before taking images and placed in a dark room for at least 6 min to quench fluorescence, followed by observation on the Nightowl-II LB983 instrument, using IndigoBasic software under the luciferase-5 min setting conditions.

Sequence of GhMYC2 (cotton) (chain, as listed by the source limits assumed): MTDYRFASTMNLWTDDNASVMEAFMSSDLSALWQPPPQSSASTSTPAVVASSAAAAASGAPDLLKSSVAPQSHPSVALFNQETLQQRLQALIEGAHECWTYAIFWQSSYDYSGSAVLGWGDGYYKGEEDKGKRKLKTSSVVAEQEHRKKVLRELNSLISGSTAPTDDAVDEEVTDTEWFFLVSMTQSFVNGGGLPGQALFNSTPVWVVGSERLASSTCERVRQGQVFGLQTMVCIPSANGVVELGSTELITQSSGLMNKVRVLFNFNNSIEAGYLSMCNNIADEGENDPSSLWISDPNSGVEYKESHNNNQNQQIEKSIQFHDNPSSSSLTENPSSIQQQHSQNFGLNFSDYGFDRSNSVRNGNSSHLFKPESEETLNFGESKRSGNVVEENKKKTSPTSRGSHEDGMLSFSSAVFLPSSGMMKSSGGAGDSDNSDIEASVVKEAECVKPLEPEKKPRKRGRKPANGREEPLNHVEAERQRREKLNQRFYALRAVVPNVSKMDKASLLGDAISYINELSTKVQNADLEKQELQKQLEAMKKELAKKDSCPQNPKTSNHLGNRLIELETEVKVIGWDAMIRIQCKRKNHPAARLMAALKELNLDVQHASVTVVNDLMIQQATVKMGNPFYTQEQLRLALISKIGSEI
T9 sequence (P01106 whole entry, the tested form may be a part): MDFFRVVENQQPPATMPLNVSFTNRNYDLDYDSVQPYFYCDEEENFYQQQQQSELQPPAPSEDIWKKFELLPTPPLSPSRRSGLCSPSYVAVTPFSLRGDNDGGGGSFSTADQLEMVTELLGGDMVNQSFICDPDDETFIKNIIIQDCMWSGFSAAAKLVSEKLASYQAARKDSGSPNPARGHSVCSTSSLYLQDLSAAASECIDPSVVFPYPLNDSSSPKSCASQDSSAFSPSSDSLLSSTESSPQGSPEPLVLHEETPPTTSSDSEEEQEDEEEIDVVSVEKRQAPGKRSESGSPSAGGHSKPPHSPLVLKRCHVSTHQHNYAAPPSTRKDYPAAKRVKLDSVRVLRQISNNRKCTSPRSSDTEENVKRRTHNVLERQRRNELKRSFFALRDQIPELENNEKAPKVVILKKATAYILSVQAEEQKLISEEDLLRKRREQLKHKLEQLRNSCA
T8 sequence (P01106 1-215 limits assumed): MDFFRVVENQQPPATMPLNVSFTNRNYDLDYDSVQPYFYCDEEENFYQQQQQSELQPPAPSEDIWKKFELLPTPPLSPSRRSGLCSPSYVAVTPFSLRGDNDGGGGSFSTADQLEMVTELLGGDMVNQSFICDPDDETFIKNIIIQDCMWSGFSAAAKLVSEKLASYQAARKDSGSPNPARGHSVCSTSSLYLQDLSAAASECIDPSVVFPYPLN
T7 sequence (P01106 1-150 limits assumed): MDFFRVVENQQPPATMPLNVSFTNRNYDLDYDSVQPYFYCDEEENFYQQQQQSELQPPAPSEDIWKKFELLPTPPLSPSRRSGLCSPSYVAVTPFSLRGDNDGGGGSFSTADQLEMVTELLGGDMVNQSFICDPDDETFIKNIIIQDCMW
T3 sequence (Q03405 other isoform, or with tags, fused parts or gaps limits assumed): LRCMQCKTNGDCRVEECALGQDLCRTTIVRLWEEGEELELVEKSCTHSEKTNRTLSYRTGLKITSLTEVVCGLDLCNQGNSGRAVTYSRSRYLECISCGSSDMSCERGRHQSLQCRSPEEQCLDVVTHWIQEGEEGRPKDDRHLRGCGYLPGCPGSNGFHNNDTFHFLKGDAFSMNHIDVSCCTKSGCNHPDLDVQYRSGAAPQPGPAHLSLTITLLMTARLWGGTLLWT

B1: GhJAZ1 (other)
chain: MSSCSESTAMKPARSPEKPSFAQTCNLLSQYLKEKGSFGDLSLGMTCNVEANGTPVVPPPTMNLFPLNDKSDDVCGRNGGNPKNLTSMDLFPQQAGLASKDDSPNKLEPQTAPMTIFYGGQVIVFNDFPANKAKEIMLLASNSSSQSNNSFNPIPFTSSIARSPIESSIGVPPTSKPVHPAQRAVPGDLPIARRASLHRFLEKRKDRITAKAPYQINNSAAAPSLSGDNKSWLGLAAQSP
notes: In yeast two hybrid it was expressed from pGBKT7 (BD fusion), in the luciferase experiment from pCAMBIA-CLuc, in BiFC from pUC-SPYNE; also called cotton JAZ1
Take B1: the binding result in the test with GhHDA6 is listed as “binds”; in the test with NMYC it was “binds”; with uPAR-D1D2, “no binding”; with GhTPL it was “binds”; with GhNINJA it was “binds”; with GhCOI1 it was “binds”. Further, the binding result in the test with c-Myc-150aa, in the test with c-Myc-215aa, with c-Myc and with GhMYC2 was “binds” each time.

Values taken from US20240279288A1 (ANYANG INSTITUTE OF SINO COTTON INDUSTRY INNOVATION, published 2024).
